This data set relates to MS2 coat protein. Kind of data set: apparent KD of MS2 coat protein; designed switch direction (-1 OFF switch, 1 ON switch): -1; higher = weaker reporter binding. The essentials: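 The apparent KD reported per design is the median over clusters of curve fits to normalised cluster fluorescence. The RNA switches were transcribed on Illumina chips by stalled E. coli RNA polymerase. SNAP-549-labelled MS2 coat protein was titrated from 0.7 or 1.5 nM, doubling up to 3 µM, in Tris-HCl pH 7.5 buffer containing KCl, MgCl2, BSA, DTT, tRNA and Tween-20, with no input, 200 uM small-molecule ligand, or an oligonucleotide input.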

Where [1] appears, read: input ligand: microRNA oligo, concentration not stated.
Setting [2] is: Eterna round: R95, input ligand: microRNA oligo, concentration not stated.
The mark [3] stands for this setting: Eterna round: R95, input ligand: FMN 200 uM.
Setting [4] is: Eterna round: R95, input ligand: none.

For the sequence “CAUGAUUGGCGAGGAUAUUGACCUAGUUAGCGACGAGAAGGCGCCUGUCACAUGAGGAUCACCCAUGUGAAUCUGGUGAAAGAG [Ex NG1 #92] (Eterna round: R96, puzzle: Exclusion NG 1)”, the “apparent KD of MS2 coat protein” value reads like this: (input ligand: FMN 200 uM) 21.6 nM; under setting [1], 13.3 nM; (input ligand: none) 18.3 nM.

For “CAUGAUUGGCGAGGAUAUUGAUCUAGUUGGCGACGAGAAGGCGCCUGUCACAUGAGGAUCACCCAUGUGAGUCUGGUGGAUGAG [Ex NG1 #87] (Eterna round: R96, puzzle: Exclusion NG 1)”, the “apparent KD of MS2 coat protein” value stood at 21.4 nM (input ligand: FMN 200 uM), 16.5 nM under setting [1] and 20.4 nM (input ligand: none).

For the sequence “CAUGAUUGGCGAGGAUAUUGAUCUAGUUGGCGACGAGAAGGCGCCUGUCACAUGAGGAUCACCCAUGUGUGUCUGGUGAAUGAG [Ex NG1 #86] (Eterna round: R96, puzzle: Exclusion NG 1)”, the “apparent KD of MS2 coat protein” value was found to be 82.5 nM (input ligand: FMN 200 uM), 48.4 nM under setting [1] and 63.3 nM (input ligand: none).

On to “CAUGCACAUGAGGAUCACCCAUGUCAGGAUAUCUAUCAUAGCAUCGAAAGAUGCGGGUAGAGAAGGGACAACCC [ChP Ext 10-04-2015 #10] (puzzle: Exclusion 1)”, for which, under setting [2], the “apparent KD of MS2 coat protein” value came to 15.5 nM.

Take “CAUGUCCGAGGAUAUAUUAUGUGAAACAUGAGGAUCACCCAUGUUAUAUGAUGGAUGUAAAUAGAAGGCGGACGUG [Mat - Exclusion 5 - JL mod - D65] (puzzle: Exclusion 5)”: the “apparent KD of MS2 coat protein” value by setting is: under setting [3], 26.3 nM; under setting [2], 31.6 nM; under setting [4], 34.5 nM.

Regarding “CAUUAUGUUGAGGAUAUGCGCCGGCUCGCUGACGCAGAAGGCGACACAUGAGGAUCACCCAUGUCAGUUCGCGA [salish99_ex6_r004_420] (Eterna round: R97, puzzle: Exclusion 6)”, the “apparent KD of MS2 coat protein” value (input ligand: FMN 200 uM) was 15.8 nM and the “apparent KD of MS2 coat protein” value (input ligand: none) was determined as 14.5 nM.

Consider “CAUUCACAUGAGGAUCACCCAUGUCAGGAUAUAGUCGAUAUAUGGAAACAUAUAUCGACUAGAAGGGACUAGCG [Jieuxxlusion 13 - Jieux - Exclusion 1] (Eterna round: R97, puzzle: Exclusion 1)”, for which the “apparent KD of MS2 coat protein” value is 152 nM (input ligand: FMN 200 uM) and 52.6 nM (input ligand: none).

For the sequence “CCAAGCUAAAUCAUUAACAACAUGAGGAUCACCCAUGUGUAAGCAAUUAUGUUUGGGCUCUUUAGUGCUCGUCUUAU [JR_STOV1_Sub043] (Eterna round: R97, puzzle: Sensor, turn-off variant 1)”, the “apparent KD of MS2 coat protein” value reads like this: (input ligand: FMN 200 uM) 15.7 nM; (input ligand: none) 16.3 nM.

For “CCAAGCUUGUUCAUUAACCACAUGAGGAUCACCCAUGUCUUGGCAAUUAUGACUUGCCCGUCAGGUGCUCGUCUUAU [Sensor-V1 #35] (Eterna round: R97, puzzle: Sensor, turn-off variant 1)”, the “apparent KD of MS2 coat protein” value is, setting by setting: (input ligand: FMN 200 uM) 65.5 nM; (input ligand: none) 71.3 nM.

With “CCACCGCCGUCAGGAUAUAACAUGAGGAUCACCCAUGUGUGAAGCAUGAGAGACUCUAACAAGUGUUAGAAGGGACUUAUUGCG [Eternabot solution 36] (Eterna round: R96, puzzle: Exclusion NG 2)”, the “apparent KD of MS2 coat protein” value reads like this: (input ligand: FMN 200 uM) 176 nM; under setting [1], 63.2 nM; (input ligand: none) 75.8 nM.

Regarding “CCACGACAUGAGGAUCACCCAUGUCAGGAUAUCCCUCAUUGUAUGAAAAUACAAUGAGGGAGAAGGGACGUGAC [SS1 Omei 2] (puzzle: Exclusion 1)”, the “apparent KD of MS2 coat protein” value under setting [2] is 27.1 nM.

With “CCAGCGUGUGUGAGGAUAUGCUGGUCCUUGGAUCAGCAGAAGGCACAUGAGGAUCACCCAUGUGAGAACGUUGG [JL bmx4 3.33] (puzzle: Brourd's mod of Exclusion 4)”, the “apparent KD of MS2 coat protein” value under setting [2] came to 17.6 nM.

Take “CCAGGCAGUGUGAGGAUAUGCUGGUGCUUGCAUCAGCAGAAGGCACAUGAGGAUCACCCAUGUGAAGAGCUUGG [Mat - Exclusion 4 - JL Mod - D97] (puzzle: Brourd's mod of Exclusion 4)”: the “apparent KD of MS2 coat protein” value under setting [2] was 21.1 nM.

“CCAGGCUGUGUGAGGAUAUGCUGGUCCUUGGAUCAGCAGAAGGCACAUGAGGAUCACCCAUGUGAAUAGCUUGG [JL bmx4 3.26] (puzzle: Brourd's mod of Exclusion 4)”: the “apparent KD of MS2 coat protein” value under setting [2] was 15.8 nM.

As for “CCAGGCUGUGUGAGGAUAUGCUGGUCCUUGGAUCAGCAGAAGGCACAUGAGGAUCACCCAUGUGAGGAGCUUGG [JL bmx4 3.28] (puzzle: Brourd's mod of Exclusion 4)”, under setting [2], the “apparent KD of MS2 coat protein” value came out at 19.9 nM.

Regarding “CCAUCACAUGAGGAUCACCCAUGUGAGGAUAUGUUUUUGGUGCGUAUAAAGCCUGGGAACAGAAGGUACAGGGA [Eternabot (L2) Solution 50] (Eterna round: R97, puzzle: Exclusion 1)”, the “apparent KD of MS2 coat protein” value is, setting by setting: (input ligand: FMN 200 uM) 15.3 nM; (input ligand: none) 12.9 nM.

“CCAUGUGAGGAGGAUAUCGCCGCGCGAACCGAAUGAGAAGGUCUUACAUGAGGAUCACCCAUGUAAAGUACAUC [Eternabot (L1) Solution 1] (Eterna round: R97, puzzle: Exclusion 6)”: the “apparent KD of MS2 coat protein” value is, setting by setting: (input ligand: FMN 200 uM) 20.9 nM; (input ligand: none) 13.1 nM.

For “CCCGAGGAAGGAUAUACAUGAGGAUCACCCAUGUGCGUUGGGACUGGCGUGGUCUUCAGUAGAAGGUCCGCGCC [Esdiza] (Eterna round: R97, puzzle: Exclusion 3)”, the “apparent KD of MS2 coat protein” value reads like this: (input ligand: FMN 200 uM) 48.7 nM; (input ligand: none) 33.8 nM.

Turning to “CCCGGGCUUGUGAGGAUAUUGUGUGUGAAAGCGCGCGAGAAGGCACAUGAGGAUCACCCAUGUAAGGGCCCGGG [-34.6, -32.6 kcal, A 23%, 6bis-0] (Eterna round: R97, puzzle: Brourd's mod of Exclusion 4)”, the “apparent KD of MS2 coat protein” value was found to be 19.3 nM (input ligand: FMN 200 uM) and 85.9 nM (input ligand: none).

For the sequence “CCCGGGUCAGGAUAUCACUUAAGCGCAGUGAGCGUCUGAGAUGAGAAGGGACAUGAGGAUCACCCAUGUGUGGC [Eternabot (L2) Solution 66] (Eterna round: R97, puzzle: Exclusion 4)”, the “apparent KD of MS2 coat protein” value (input ligand: FMN 200 uM) stood at 456 nM and the “apparent KD of MS2 coat protein” value (input ligand: none) was 93.7 nM.

For “CCCUAGGGAGGAUAUCCAAUAUAUGACAUGAGGAUCACCCAUGUUUCCACUCGUACCUCCGGAGAAGGCCCAUACC [Ex5 #10] (Eterna round: R97, puzzle: Exclusion 5)”, the “apparent KD of MS2 coat protein” value is, setting by setting: (input ligand: FMN 200 uM) 28 nM; (input ligand: none) 28.4 nM.

As for “CCCUCACAUGAGGAUCACCCAUGUCAGGAUAUCUAGUCAGACAGUAUAGCACUGCUGAAGAGAAGGGACGUAAA [Labiusce] (puzzle: Exclusion 1)”, the “apparent KD of MS2 coat protein” value under setting [2] was 17 nM.

In the case of “CCCUGACAUGAGGAUCACCCAUGUUAGGAUAUAACAUUUGACGCGACAGUGUGGAGUGUUAGAAGGGAUAUGGG [-28.4, -26.7 kcal, A 28%] (Eterna round: R97, puzzle: Exclusion 1)”, the “apparent KD of MS2 coat protein” value runs as follows: (input ligand: FMN 200 uM) 29.9 nM; (input ligand: none) 20.8 nM.

With “CCCUUGUGAGGAUAUAGUAGUUGCACAUCGAUAGAGUAACUCUAGAAGGCACAUGAGGAUCACCCAUGUACGAA [Eternabot (L1) Solution 56] (Eterna round: R97, puzzle: Exclusion 4)”, the “apparent KD of MS2 coat protein” value was 70.2 nM (input ligand: FMN 200 uM) and 119 nM (input ligand: none).

In the case of “CCGAAAAGGAAGGAUAUGCUAGACGAAAGUCUAGCAGAAGGUCCUACAUGAGGAUCACCCAUGUGGUCCUUCGG [Mat - Exclusion 6 - Eli Mod - D35] (Eterna round: R97, puzzle: Exclusion 6)”, the “apparent KD of MS2 coat protein” value was 1730 nM (input ligand: FMN 200 uM) and 448 nM (input ligand: none).

As for “CCGAAUAAGUAGGAUAUCGUAUCGGAAACGAUACGAGAAGGGCUAACAUGAGGAUCACCCAUGUUCCUUAACGG [Fiskers Ex 6 - 16] (puzzle: Exclusion 6)”, the “apparent KD of MS2 coat protein” value runs as follows: under setting [3], 20 nM; under setting [2], 16.4 nM; under setting [4], 18.7 nM.

In the case of “CCGCAAAUGGAGGAUAUCGUAUCGGAUACGAUACGAGAAGGCUAAACAUGAGGAUCACCCAUGUGUCCUAGCGG [Fiskers Ex 6 - 34] (puzzle: Exclusion 6)”, the “apparent KD of MS2 coat protein” value under setting [2] was 10.9 nM.

“CCGCUACAUGAGGAUCACCCAUGUCAGGAUAUCGUACGUUCGUCGAUAGACGAUCGUACGAGAAGGGUGAGCGG [Mat - Exclusion 1 - Eli Mod - D37] (Eterna round: R97, puzzle: Exclusion 1)”: the “apparent KD of MS2 coat protein” value by setting is: (input ligand: FMN 200 uM) 156 nM; (input ligand: none) 209 nM.

As to “CCGCUCCGUGUAGGAUAUCGUUGUACCCUGCGGCGAGAAGGACAUGAGGAUCACCCAUGUAUGUUAUUAUCACGCGUGGCGCAC [Design 71] (Eterna round: R96, puzzle: Exclusion NG 1)”, the “apparent KD of MS2 coat protein” value (input ligand: FMN 200 uM) was 18 nM, the “apparent KD of MS2 coat protein” value under setting [1] was 15.8 nM and the “apparent KD of MS2 coat protein” value (input ligand: none) is 19.3 nM.

As to “CCGGAAGUACAGGAUAUCGUAACGGAUACGUUACGAGAAGGGUAUACAUGAGGAUCACCCAUGUGUCCUACCGG [Mat - Exclusion 6 - Eli Mod - D95] (puzzle: Exclusion 6)”, the “apparent KD of MS2 coat protein” value under setting [3] is 27.8 nM, the “apparent KD of MS2 coat protein” value under setting [2] is 26 nM and the “apparent KD of MS2 coat protein” value under setting [4] came to 27.1 nM.

For “CCGGUAUAGGAGGAUAUAGGAGUCGAUAGACACCUAGAAGGCCUGACAUGAGGAUCACCCAUGUGUCCUUCCGG [Fiskers Ex 6 - 95] (puzzle: Exclusion 6)”, the “apparent KD of MS2 coat protein” value under setting [2] was determined as 17.7 nM.

In the case of “CCGGUUUAGGAGGAUAUAGGAGUCGAUAGACACCUAGAAGGCCUAACAUGAGGAUCACCCAUGUGACCUUCCGG [Mod of Eli 30 - Jieux - Exclusion 6] (Eterna round: R97, puzzle: Exclusion 6)”, the “apparent KD of MS2 coat protein” value is 234 nM (input ligand: FMN 200 uM) and 76 nM (input ligand: none).

The values above are taken from the supplement of paper PMC9170038.
